Patent US20230067811A1, “MODULATING LYMPHATIC VESSELS IN NEUROLOGICAL DISEASE” (University of Virginia Patent Foundation, priority 2020, published 2023)

B1: VEGF-c: VEGFR3 agonist polypeptide (SEQ ID NO: 1), flow modulator; in Examples 1-3 delivered by AAV1 vector expressing VEGF-c (protein, listed as Homo sapiens)
chain: MHLLGFFSVACSLLAAALLPGPREAPAAAAAFESGLDLSDAEPDAGEATAYASKDLEEQLRSVSSVDELMTVLYPEYWKMYKCQLRKGGWQHNREQANLNSRTEETIKFAAAHYNTEILKSIDNEWRKTQCMPREVCIDVGKEFGVATNTFFKPPCVSVYRCGGCCNSEGLQCMNTSTSYLSKTLFEITVPLSQGPKPVTISFANHTSCRCMSKLDVYRQVHSIIRRSLPATLPQCQAANKTCPTNYMWNNHICRCLAQEDFMFSSDAGDDSTDGFHDICGPNKELDEETCQCVCRAGLRPASCGPHKELDRNSCQCVCKNKLFPSQCGANREFDENTCQCVCKRTCPRNQPLNPGKCACECTESPQKCLLKGKKFHHQTCSCYRRPCTNRQKACEPGFSYSEEVCRCVPSYWKRPQMS

Legend:
human LECs = experiment: Human LECs incubated with Aβ42, bulk RNA-seq; type: cell-based; details: 100 nM, 24 h, vs scrambled peptide
Procedure: To determine whether the increased levels of Aβ alone could account for the observed changes in the LEC transcriptome, human LECs were incubated with 100 nM human Aβ1-42 (a monomeric/dimeric preparation) or control scrambled human Aβ1-42 peptide for 24 or 72 h (FIG. 5J).
Cultures of human LECs. […]
Bulk RNA sequencing. […] The mergedfastq files were then chastity filtered to remove low quality bases, trimmed using the trimmomatic software, and mapped to the UCSC […] genome using Salmon (Harrow, J. et al. GENCODE: the reference human genome annotation for The ENCODE Project. Genome Res 22, 1760-1774, (2012); Patro, R., Duggal, G., Love, M. I., Irizarry, R. A. & Kingsford, C. Salmon provides fast and bias-aware quantification of transcript expression. Nat Methods 14, 417-419, (2017)). […] The resulting transcript abundances were read into R and summarized using tximport (Soneson, C., Love, M. I. & Robinson, M. D. Differential analyses for RNA-seq: transcript-level estimates improve gene-level inferences. F1000Res 4, 1521, (2015)). […]

5×FAD mice = experiment: Meningeal lymphatic and blood vessel morphology after i.c.m. AAV1-mVEGF-C plus anti-Abeta antibody; type: in vivo, mouse; details: adult 5×FAD mice, AAV1 vector i.c.m., meningeal whole mounts
Procedure: Adult 5×FAD mice were treated with a combination of VEGF-c and an antibody that binds amyloid beta (ABETA Mab1) administered into the cisterna magna (i.c.m). After administration of AAV1 vector expressing VEGF-c or eGFP and the antibody according to schematic shown in FIG. 1A, brain and meningeal morphology was observed. Representative images of the meningeal whole-mounts of 5×FAD mice treated with different combinations of mIgG2a or monoclonal anti-amyloid beta antibody (“ABETA Ab”) with AAV1-CMV-eGFP or AAV1-CMV-mVEGF-C are shown in FIG. 1B. Meninges were stained for LYVE-1 and CD31; scale bar, 1 mm; inset, 300 m (FIG. 1B) Measurements of transverse sinus diameter, coverage by LYVE-1negCD31^+ blood vessels, total number of lymphatic branches, transverse sinus lymphatic vessel diameter and coverage by LYVE-1+ lymphatic vessels (See FIGS. 1C-1G). Results in FIGS. 1C-1G are presented as mean±s.e.m.; n=7 in eGFP+mIgG2a, n=6 in eGFP+ABETA Ab, in mVEGF-C+mIgG2a and in mVEGF-C+ABETA Ab; Two-way ANOVA with Sidak's multiple comparison test. In FIGS. 1D and 1G, the units for the Y-axis are percentage of field of view (“% FOV”).
Science 352, 712-716, (2016)) or microhemorrhages in the brain and meninges (Salloway, S. et al. Two phase 3 trials of bapineuzumab in mild-to-moderate Alzheimer's disease. […]

APPswe mice = experiment: Brain Aβ plaques in aged APPswe mice after i.c.m. AAV1-mVEGF-C plus anti-Abeta antibody; type: in vivo, mouse; details: with anti-amyloid beta antibody, vs eGFP vector
Text: Age of APPswe mice and treatment regimen of anti-amyloid beta antibody with AA1 vector expressing VEGF-c or eGFB via i.c.m are shown in FIG. 3A. Results of behavioral tests (open field (OF), novel location recognition (NLR) and contextual fear conditioning (CFC)) are shown in FIGS. 3B-3D. […] Time investigating one of the object location (% of total time investigating objects) in the training trial and time investigating the novel object location (% of total time investigating) in the NLR test are shown in FIG. 3C. Representative images of the brain sections of APPswe mice treated with anti-Abeta antibody and with AAV1-CMV-eGFP or AAV1-CMV-mVEGF-C are shown in FIG. 3E. Brain sections were stained for Aβ and with DAPI; scale bar, 1 mm. FIGS. 3F-3G show plaque density (number of plaques per mm^2), average size (m^2) and coverage (% of brain section) in the cortex and amygdala or in the hippocampus. Results in FIGS. 3B-3D, 3F, and 3G are presented as mean s.e.m.; n=11 per group; Two-tailed unpaired Student's T test.
Intra-cisterna magna and intravenous injections. Mice were anaesthetized by intraperitoneal (i.p.) injection of a mixed solution of ketamine (100 mg/Kg) and xylazine (10 mg/Kg) in saline. […]
Immunohistochemistry, imaging and quantifications. […]

[1] = system: meningeal lymphatic vessels; details: Example 4 of WO2017/210343; cited from earlier work

Row | Molecule | gene expression in human LECs (human LECs) | lymphatic diameter (5×FAD mice) | number of plaques in the cortex and amygdala (APPswe mice) | number of plaques in the hippocampus (APPswe mice) | diameters of meningeal lymphatic vessels [1]
1 | Aβ1-42: synthetic monomeric/dimeric human amyloid beta 1-42 peptides (Anaspec AS-20276) | Changes in gene expression | – | – | – | –
2 | B1 | – | increased lymphatic diameter | reduced the number of plaques | reduced the number of plaques | increase the diameters of meningeal lymphatic vessels
